The source of these data is publication PMC4587554.

This experiment addresses Pf12 (His26 to Ser321) (Plasmodium falciparum) (UniProt C6KSX0). The experiment in a line: ITC; Pf12 10 μM in the sample cell; full length Pf41 or Pf41ΔID 100 μM added in 16 injections of 2.4 μL, 180 s apart; 25°C; one-site model; single experiment representative of two.

“Pf41 full length (mature, Lys21 to Ser378) (from UniProt Q8I1Y0 21-378) (natural protein)”: the Kd was 0.0277 µM, the dH was -33.9 kcal/mol and the stoichiometry N is 0.85 Pf41:Pf12.
